Laboratory results published in the supplement of paper PMC12042874.
± gives the uncertainty stated by the source.

Experiment: amyloid nucleation score (Sup35N fusion, yeast selection) (log enrichment); library NNK1; higher = more nucleation; inactive = no reads after selection
How it was run: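 Yeast lacking psi expressed peptides of 20 random codons fused to Sup35N, received 100 μM copper sulfate for 24 hours, and were then grown for 7 days at 30°C on medium lacking adenine and uracil. Illumina sequencing of input and output plasmid inserts provided the reads. Nucleation scores are DiMSum log enrichments of output over input, centred on the mode of non-aggregating sequences. Any sequence with under 100 input reads was excluded.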

Substance | amyloid nucleation score
TQEVLLFPGGCYNPFAFGWS | -0.647 ± 0.75
TQSSNPTLGGFQFHLWVNIF | -1.85 ± 0.95
TRCIAVFIGD | 2.52 ± 0.11
TRCRWLQ | 0.931 ± 0.93
TRFMMRVRIVSDCDTVNFAC | -0.379 ± 0.62
TRFNFMGLYNLRMVN | -0.777 ± 1.2
TRIVLLVVRRGTRKG | 0.889 ± 0.48
TRLHRSQYSLSQSYNRTRKM | 0.39 ± 1.2
TRMLLMIL | -0.921 ± 2.4
TRNVSVTAVMED | 0.938 ± 0.81
TRSLPFSIS | 0.109 ± 1.4
TRVASQDARTDP | -0.034 ± 0.49
TRWCEWRYRSPDRYASLTGF | -0.06 ± 0.43
TSAASLVERNLFLVSFFIIW | -0.376 ± 1.7
TSCVLFLYTPLTGSFLAGCP | -0.46 ± 0.59
TSELFYGTCGKGCPERVGGQ | -0.266 ± 1.6
TSFMEIVVLDAVGRQRRSSV | -0.106 ± 0.49
TSGFLPLKTKMF | 0.252 ± 0.8
TSGWCSRLQIIGLYLNVLVC | 5.47 ± 0.06
TSINWFRTVLYGVSLNYFWV | 0.345 ± 0.6
TSKSTLYSECVMWPVDPEPT | 0.273 ± 0.58
TSLPTAVWLKSARQWVEYGL | 1.18 ± 0.54
TSLRFLSVRS | 0.011 ± 0.49
TSMLDLN | -1.69 ± 1.8
TSMLSGSWSRPDPLTDSSGD | 0.517 ± 0.47

Substance | amyloid nucleation score
TSNSS | -1.07 ± 0.52
TSRGKDLSTRVGGGAPPGFR | -0.766 ± 1.6
TSSCLVYL | -0.413 ± 0.55
TSSTRILISTTELVRNYCYC | 1.37 ± 0.26
TSSVGMWGQWYSRWNSRKCN | -0.573 ± 1.7
TSTYWQVDEAV | -0.325 ± 0.52
TSYLLCMEQYYLKEISCRDS | 0.688 ± 0.38
TSYYRGFYKYAWNG | 0.21 ± 0.39
TTFFDLT | 0.713 ± 0.74
TTFFSGIYKKASLFYRHFVL | -0.812 ± 0.28
TTMILWQTQYDYLG | -0.247 ± 0.58
TTRFRNFKLRSH | inactive
TTVANTSAVFCEAVCKGMQK | 0.078 ± 0.99
TVFYMRPVGSGTGNLNLLQL | 0.906 ± 1
TVIGSSRGAPLIIKSGFIIE | 4.25 ± 0.056
TVMHSAMIYILVPVSGSGQV | 5 ± 0.064
TVMTRRSLWRTVGLNWVMLV | 1.53 ± 0.19
TVSDHPSFFCVYCADSSVGM | 7.439 ± 0.073
TVSLGEQFLFTIAVGYGDSD | inactive
TVTYRLYVPATVCFKILFRR | -0.625 ± 0.33
TVYYDSIRSMYGYGGGVASR | -0.344 ± 0.49
TWEFRYNFFYNVPRLQTYKI | -0.169 ± 0.42
TWPVLSDGQAGELRVRMGSA | 0.741 ± 0.88
TWSRAQM | inactive
TWTCDSVCCVRNKEVCGVYQ | 0.033 ± 0.23

Substance | amyloid nucleation score
TYERICGCMFCLTCSSDAF | -0.19 ± 0.71
TYGRASRALGDFRQITRVAS | -1.38 ± 1.7
TYLFSTVGVSGSSMSQVYIV | -0.387 ± 0.46
TYRFGCTLPLLRMCFIP | 0.435 ± 0.71
TYRKYLRVRTLDERHGSVYE | 0.147 ± 0.35
TYSPQLLYNYPLCLVFLSCL | 2.83 ± 0.15
TYTCVNPVGHFTGGNRGILW | 0.425 ± 1.1
TYTPRETTSTCSAYSFYMLK | 1.26 ± 0.15
TYTVGHYVAFWSRRVKSNES | 0.392 ± 0.67
TYVLTP | -0.454 ± 1.6
TYYVRCLGLLGLNPTFRSPR | 0.365 ± 0.36
VAFNICSENRLVNFR | -0.577 ± 0.4
VAKSRCYTQCGLGYLSRKLA | inactive
VALAIIRPY | -0.431 ± 0.27
VAQLRIKVCKDPGTWLQVHH | 1.48 ± 0.74
VATIQRISGIKQESAGSRTF | -0.07 ± 0.93
VAWLNCSTKVGL | -0.053 ± 1.3
VCAQFSRGRIFTAIVIGWTQ | 0.857 ± 0.64
VCCYILAYNMFGVLAEWLCG | 3.66 ± 0.069
VCESVNNAHAAYSAVLSVQM | -0.347 ± 0.54
VCFMKCLLSCAIEYSRRLDI | 1.9 ± 0.64
VCGGETLPRVVSNGGRSPRV | 0.602 ± 0.35
VCIIIVYRIYLSYMCPISY | -0.463 ± 0.37
VCLGLSQDLHKSYTVRSAT | -0.009 ± 0.41
VCNIPNFCQKQCLSFTTIRY | 2 ± 0.12

Substance | amyloid nucleation score
VCNWVSLGVALHRALEQLGI | -1.32 ± 0.92
VCRQMYVLDCYS | inactive
VCSLSVYRTCSRDLFNFIWV | 0.262 ± 0.41
VDCLGFLEHICGLGDIIKTK | 0.341 ± 0.25
VDCPIECTAAGRSHDSGV | 1.42 ± 0.63
VDGSSCFGCAGCTTRRFTSG | -0.253 ± 0.43
VDLALLYCDIKMQLV | 1.14 ± 0.88
VDLLGTTDGRSRVLFRIRTR | 0.151 ± 0.59
VDLNSGQSMNLGTYECRSNV | -1.49 ± 1.8
VDLPFMLAKVR | 0.856 ± 0.71
VDLSLLIMVFQFGGVGERLR | 2.15 ± 0.17
VDRCGFGVFATVGMSCMDSF | 0.918 ± 0.45
VDWSVAWHWLLSSD | 0.484 ± 0.49
VEIGFFQRHKARIFMGTRSL | -0.209 ± 0.34
VELQYDLYCFSSFADPLS | 1.29 ± 0.6
VENNWIWVGRTLNATLDSHQ | 0.082 ± 0.26
VERFDLHLSD | 1.06 ± 0.6
VESDKCQLGTLSIMYICFFL | inactive
VEYSVTCFLNYY | 5.71 ± 0.059
VFCSQGMADTLR | 0.409 ± 0.84
VFGLAV | -0.912 ± 1.1
VFGLLPVSSCIVRNRRDLRN | -0.371 ± 0.27
VFHNYFLRTYTNRRARSVSI | 2.86 ± 0.14
VFIYTAACP | 0.492 ± 0.45
VFLACNMMYDTKVQTHGYRG | 4.23 ± 0.07

Substance | amyloid nucleation score
VFLWDSHV | -0.505 ± 0.39
VFMSLESFYKYNYTHFFFRK | 0.114 ± 0.39
VFNTVVS | -0.161 ± 0.41
VFSLYSTQKLSRRVIGMLGL | 0.725 ± 0.81
VFYDVGGVSD | 0.03 ± 0.48
VGCVWAQEDRVPT | -0.715 ± 0.83
VGEQPYFGVFTTRYVMARYA | 0.487 ± 0.71
VGEQSCLLFYMKQ | 0.247 ± 0.29
VGFGQSHGVFRCGVMRLRRG | 0.192 ± 1.1
VGFNKL | 0.013 ± 0.6
VGFRVDFNIDLQLFLYRNEK | 0.334 ± 0.81
VGFVLFLANSERYCDRISFG | -0.13 ± 0.97
VGFYCHLCGYLVWGRWKHSA | 1.18 ± 0.97
VGIGLSFQTEQSVCTDLLYS | -0.203 ± 0.69
VGLLKAAEDGVLRIGVRRSW | 0.631 ± 0.8
VGLNMLKNFNPDLSAKDITH | -0.176 ± 1.1
VGRSQRMQKTLKVSVWYWIN | 0.117 ± 0.7
VGRYFTMCFYKSMHRCRRVF | 0.266 ± 0.38
VGTTLRFWGKLFNPVDKAIR | -0.619 ± 0.46
VHCLLAGRKMNFGLFCINVQ | -0.025 ± 0.68
VHFEGFWAFTLVDLT | 0.232 ± 0.48
VHFRYNIVTVSPQVIKFFST | 5.36 ± 0.071
VHLTSPYHCRVPDMNSCYGS | 0.371 ± 0.91
VHRIYKCALRVSRADSLIVT | inactive
VHRQMEMIIKIVWTRAYAFT | 2.33 ± 0.6

Substance | amyloid nucleation score
VHTMSLWCDISQLIVPVNRV | 1.1 ± 0.52
VIAMDNDRYFGSVFSYIRMN | -0.147 ± 0.29
VIASELSSCFSLRHNVVTTS | -0.469 ± 1.2
VIDYVGFRHTGGGSVGFVGG | -0.387 ± 0.65
VIGLSQWVNSLSYRFEMQNL | 4.72 ± 0.094
VIGSCRTCMS | 0.135 ± 0.3
VIGVRAQYLCRHTLSVRYRK | 1.67 ± 0.4
VILSYCLIFLK | -0.647 ± 0.48
VIMCYR | -0.309 ± 0.29
VIPVLWAVLWEAIIYEEGGA | 0.778 ± 0.22
VIQEPKFMYLQLFVGLPCVS | 4.51 ± 0.09
VISVNLGFFPSFVIRASVAS | 5.45 ± 0.079
VIVARQFISPSVYGDAMDHS | 1.15 ± 0.97
VIVVVPLFGGRLCRVVRHR | 0.278 ± 0.62
VIWSNWRRRVPEGPDERYKR | 0.649 ± 0.46
VKCPVGDDHWGSRGDASVIT | -0.004 ± 0.8
VKCYLDLINFRYLLDLGDEA | 0.066 ± 0.2
VKGLRSLGSTCRSLKDGITV | inactive
VKGQHFQLKIVRRLRTFRHH | 3.79 ± 0.066
VKGVVYAGH | -1.44 ± 1.8
VKKGILLSVLDASFRTSVYE | -0.424 ± 0.88
VKLGDNNTRQLTYSGS | 1.71 ± 0.73
VKQTGLVARMRWVTGLARDG | -0.921 ± 1.3
VKVCSSSMRFNVL | 0.689 ± 0.58
VKVIVIHAAC | -0.256 ± 0.31

Substance | amyloid nucleation score
VKVRFIRIYYFFCNSKDFRG | -0.308 ± 0.31
VKVVALRIWRSEDLVVRFWG | 0.562 ± 0.78
VKYWFVVGVVLSWFTER | -0.304 ± 0.24
VLDGNKLQSRSLSCSSWYLS | 4.03 ± 0.12
VLFHHSSQIRVI | inactive
VLGDSARVCSGDGV | 0.494 ± 0.74
VLGKLEWCNLSSVTRAPCFM | 0.14 ± 0.71
VLGLGSC | -0.15 ± 0.54
VLGMAEATADFSPIWVSKCS | 0.455 ± 1.4
VLGSKKWDDLGYLYCRLCTH | 0.64 ± 0.65
VLGYAFYCYLCRNLRRNNFS | 0.864 ± 0.53
VLIFWWIMKGRFWVMCSAGY | 0.621 ± 0.89
VLISPGFLSVARCLSLDTLF | -0.343 ± 0.33
VLKCHSGSCRIYTNDSYVAL | 0.387 ± 0.17
VLLDGAKMSESAEGGISALW | -0.161 ± 0.46
VLLSQIVGIWAL | -0.642 ± 0.67
VLLVGVSDESRSRSPQGMSP | 0.243 ± 0.84
VLMFIINSCKR | 7.028 ± 0.052
VLMMLNGTDVKWMESANELS | 0.49 ± 0.41
